One series has as its system uterine contractions. In words: clinical observation of pregnant women with symptoms of likely premature birth (cardiotocography, arterial pressure, heart rate). In kind it is in vivo, human. The protocol: Three pregnant women having symptoms indicating the likelihood of premature birth have been observed while in their 34-36th week of pregnancy. […] Arterial pressure, heart rate and skin coloring were evaluated. The women were clearly aware of the contractions and of the pain caused by such contractions.
The women were administered 100 Units of synthetic Parathormone 1-34 (two vials according to Examples 1 and 2) by rapid infusion (10 minutes), diluted in 200 cc of physiological solution. Two blood samples were taken before and after infusion and the serum was frozen and stored at -20° C. for the evaluation of the mineral elements (calcium, phosphorous, magnesium, alkaline phosphatase, parathormone, progesterone, estradiol).

Another series deals with human myometrium. The experiment in a line: in vitro motility of fragments of myometrium of pregnant women, contraction induced by oxytocin. The note with it: PTH 8.5×10^-8 M, oxytocin 1×10^-2 U, myometrium taken during Caesarean birth, FIG. 2 vs FIG. 1. An excerpt: Experimental Trials on the in vitro motility of fragments of myometrium of pregnant women
Series [1] concerns contractions induced by PGF2alpha. The experiment in a line: contractions induced by PGF2alpha. In kind it is in vivo. The settings on record: PGF2alpha 1 mg/kg; PTH 4×10^-4 mg/Kg; FIG. 4 vs FIG. 3. The text has this: Furthermore. Parathormone, has also been essayed for the contractions induced by PGF2alpha according to the technique described in the British Journal of Pharmacology 93: 185-191 (1988).

The subject of the next series is rat uterus. The settings on record: in vitro, studies reported in the literature; cited from earlier work.
Where [2] appears, read: three pregnant women, 34-36th week, 100 Units by rapid infusion (10 minutes).

Entries after “also recorded” stand apart in the source; their conditions may differ.

In the case of Parathormone 1-34, the “arterial pressure and heart rate of the mother” value with uterine contractions (100 Units by rapid infusion) is on record as “did not show variations of worthwhile note”. For the same molecule, the “patient-reported uterine contractions and pain caused by the contractions” value with uterine contractions (100 Units by rapid infusion, pain particularly in the lumbar-sacral region) is “immediate disappearance of uterine contractions and of pain”. The fetal heart beat entry with uterine contractions (cardiotocography, 40 minutes monitoring, 100 Units by rapid infusion, FIG. 5) was “did not show variations and remained within the normal limits”. In the series on uterine contractions (period of monitoring 40 minutes, 100 Units by rapid infusion, FIG. 5), the “cardiotocography waves referring to uterine contractions” value is “disappearance of waves referring to uterine contractions”. In the series with uterine contractions (setting [2]), the “efficacy on uterine contractility” value is “efficacy of Parathormone on uterine contractility”; the “side effects in mother and fetus” value is reported as “no side effects have been noted either in the mother or the fetus; also recorded: no side effects were noted in relation to the infusion of the drug”.

B1: Parathormone (protein, UniProt P01270 32-115, looked up)
Parathyroid hormone: SVSEIQLMHNLGKHLNSMERVEWLRKKLQDVHNFVALGAPLAPRDAGSQRPRKKEDNVLVESHEKSLGEADKADVNVLTKAKSQ
modifications: Parathyroid hormone
notes: intact (whole) human parathyroid hormone
B1: the “effect on contraction of human myometrium induced by oxytocin” value in the series with human myometrium is listed as “net inhibitory effect”; in the series with human myometrium (listed as intact human parathormone), “inhibitory effect (flat trace)”. For the same molecule, the “effect on contractions induced by PGF2alpha (intensity and duration)” value in series [1] was “clear inhibitory effect both in terms of intensity and duration”. In the series on rat uterus, the “action on contractility of the rat uterus induced by oxytocin, acetylcholine and prostaglandin” value was “inhibitory action”.

These data come from patent US5880093A, “Use of parathormone, its biologically active fragments and correlated peptides, for the preparation of pharmaceutical compositions useful for the treatment of pregnancy” (priority 1992, dated 1999).
